Target: HTLV receptor (Glut1, the ubiquitous vertebrate glucose transporter) on human cells (human (endogenous in 293T)) (UniProt P11166)
UniProt P11166, sequence (P11166 whole entry): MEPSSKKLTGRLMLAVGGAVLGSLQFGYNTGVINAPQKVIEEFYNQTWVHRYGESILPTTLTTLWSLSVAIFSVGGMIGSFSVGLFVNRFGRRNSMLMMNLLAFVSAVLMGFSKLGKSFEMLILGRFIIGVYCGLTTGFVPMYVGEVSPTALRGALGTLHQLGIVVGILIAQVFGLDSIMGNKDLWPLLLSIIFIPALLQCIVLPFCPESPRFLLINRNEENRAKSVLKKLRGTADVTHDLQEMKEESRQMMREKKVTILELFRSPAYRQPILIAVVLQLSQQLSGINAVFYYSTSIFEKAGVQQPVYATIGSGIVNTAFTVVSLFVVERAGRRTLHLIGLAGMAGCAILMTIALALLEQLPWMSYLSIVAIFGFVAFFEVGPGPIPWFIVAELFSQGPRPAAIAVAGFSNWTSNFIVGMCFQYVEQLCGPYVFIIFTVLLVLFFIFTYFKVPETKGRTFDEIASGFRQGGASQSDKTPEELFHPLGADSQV

## H1(Y114A)SU, H1_(215)SU subdomain with Tyr114 mutated to Ala (from UniProt P23064 21-215) (Fc fusion)
  HTLV Env-mediated cell fusion with target cells that express the mutant, percent of control fusion: 56 % of control
  MLV(HTLV) pseudotype infection of target cells that express the mutant, percent of control infection: 46 % of control
